The source of these data is US20250197488A1 (MABWELL SHANGHAI BIOSCIENCE, published 2025).

Test [1] concerns the target T1, IL-11 (Cat. 12225-HNCE, Sino Biological Inc.) (UniProt P20809 22-199, limits assumed).
T1 sequence (looked up): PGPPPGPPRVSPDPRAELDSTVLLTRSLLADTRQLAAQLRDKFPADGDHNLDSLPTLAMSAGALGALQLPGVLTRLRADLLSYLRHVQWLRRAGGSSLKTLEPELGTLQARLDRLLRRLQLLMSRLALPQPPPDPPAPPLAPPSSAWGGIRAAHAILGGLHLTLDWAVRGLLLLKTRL
Briefly: competition ELISA: IL-11Rα-His coated, IL-11 + antibody + gp130-Fc. On the procedure:
The activity of the recombinant murine anti-IL-11 antibodies for blocking the formation of IL-11/IL-11Rα/GP130 complex was analyzed via competition ELISA. IL-11Rα-His (NP_004503.1, Met1-Val363, C-terminus-6-His Tag) was firstly added into ELISA plates to be coated overnight. Next day, samples were prepared as follows. […] After co-incubating and washing, an HRP conjugated anti-human Fc secondary antibody was added to develop the color which was then detected.
A general note: In an ELISA, binding on a coated surface is turned into a signal by an enzyme label.

Test [2] has as its target T2, human IL-11 (AAH12506.1, Pro22-Leu199) (human, UniProt P20809 22-199).
T2 construct: The range Pro22-Leu199 counts on AAH12506.1; The Octet runs say only 'human IL-11'; also called hIL-11
T2 chain: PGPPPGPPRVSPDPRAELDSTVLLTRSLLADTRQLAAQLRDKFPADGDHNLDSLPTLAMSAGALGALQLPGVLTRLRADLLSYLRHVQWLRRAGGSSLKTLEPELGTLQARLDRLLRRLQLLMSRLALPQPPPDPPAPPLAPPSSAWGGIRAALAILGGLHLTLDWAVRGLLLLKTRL
Nature of the test: BLI (Octet), antibody on AHC probe, human IL-11 in solution. On the procedure: (§1) When the hybridoma cells were cultured to a certain number, culture supernatants were collected and purified using Protein G affinity chromatography to obtain murine hybridoma antibodies (Hy5C2, Hy8C8, Hy16B5, Hy18A10, Hy18H10, Hy23G6 and Hy29C11). The affinity of the murine antibodies purified from the hybridoma supernatants was determined using an Octet QKe System instrument from Fortebio Inc. with an anti-mouse IgG Fc Capture biosensor to capture the Fc fragments of the antibodies, for which an anti-IL-11 antibody named “3C6-mFc” recombinantly expressed was used at the same concentration as a positive control. Specifically, a hybridoma supernatant was diluted with HBS-EP+ buffer (GE), and was allowed to pass through the surface of AMC probes (Cat: 18-5088, PALL), and so the antibody in the hybridoma supernatant was captured on the surface of the probes; then, human IL-11 diluted in the HBS-EP+ buffer (300 nM) was used as a mobile phase to react with the antibody captured on the surface of the probes. Both the binding and the dissociating were conducted for 300 seconds. When the experiment was finished, data from which response values of blank controls had been deducted was fitted using a 1:1 Langmuir binding model by software, and then kinetic constants for antigen-antibody binding were calculated. Binding signals were detected on the Octet QKe System instrument with Hy5C2, Hy8C8, Hy16B5, Hy18A10, and Hy18H10.
(§2) The affinity of hz18A10 and hz8C8 was determined according to the method provided in Example 1 using AHC bioprobes for capturing human Fc fragment instead, with other conditions unchanged. A recombinantly expressed anti-IL-11 antibody 3C6-hFc was used at the same concentration as a positive control.

The target in test [3] is T1, IL-11 (Cat. 12225-HNCE, Sino Biological …). Nature of the test: cell-based or functional assay.
Test [4] addresses T2, human IL-11 (AAH12506.1, Pro22-Leu199). Briefly: BLI (Octet), antibody on AHC probe, human IL-11 in solution. On the procedure: as §1, §2
A general note: BLI is a label-free optical method that tracks binding on a fibre tip over time.

The target in test [5] is T1, IL-11 (Cat. 12225-HNCE, Sino Biological …). Briefly: competition ELISA, IL-11/IL-11Rα/GP130 complex. The procedure, abridged: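 Plates coated overnight with IL-11Rα-His (Met1-Val363, C-terminal 6-His); antibody samples co-incubated to compete for IL-11/IL-11Rα/GP130 complex formation. Bound complex detected colorimetrically with HRP-conjugated anti-human Fc secondary antibody. Humanized and affinity-matured mutants carried human IgG1 constant regions.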

For test [6], the target named is T2, human IL-11 (AAH12506.1, Pro22-Leu199). Briefly: BLI (Octet QKe), antibody on anti-mouse Fc probe, human IL-11 300 nM. The procedure: as §1
For test [7] the target is unchanged. Nature of the test: BLI (Octet), antibody captured, human IL-11 in solution. The method, boiled down: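 Murine antibodies from hybridoma supernatants in HBS-EP+ captured on anti-mouse IgG Fc biosensors; human IL-11 (300 nM) as analyte, 300 s association and 300 s dissociation. Blank-subtracted data fitted to 1:1 Langmuir model for kinetic constants. Humanized and mutant antibodies (human IgG1) captured on anti-human Fc probes, otherwise unchanged.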

As a reminder, the IC50 is the midpoint of a concentration-inhibition curve. As a reminder, the Kd is the free concentration of one partner at which half of the binding sites on the other are occupied at equilibrium, for simple one-to-one binding. As a reminder, the koff is the first-order rate constant of dissociation. What is called kon is the second-order rate constant of association.

B1: mu18A10 (antibody, V domains shown)
VH: QVQLQQPGAELVKPGASVKMSCKASGYKFITYNMDWVKQTPGQGLEWIGTIYPGNGDTSYNQKFKGKATLTADKSSSTAYMQLSSLTSEDSAVYYCARGDLYALDYWGQGTSVTVSS
VL: SIVMTQTPKFLLVSAGDRVTITCKASQSVSNDVAWYQQKPGQSPKLLIYSASNRYTGVPDRFTGSGYGTDFTFTINTVQAEDLAVYFCQHDYSSPYTFGGGTKLEIKR
notes: also called recombinant murine antibody 18A10
Consider B1, for which the half-maximal inhibitory concentration (IC50) in test [1] was found to be 1.4 µg/mL.

B2: 3C6-hFc (antibody, human IgG1, kappa)
heavy: not shown
light: DIVLTQSPASLALSPGERATLSCRASKSVSTSGYSYIHWYQQKPGQAPRLLIYLASNLDSGVPARFSGSGSGTDFTLTISSLEEEDFATYYCQHSRDLPPTFGQGTKLEIKRTVAAPSVFIFPPSDEQLKSGTASVVCLLNNFYPREAKVQWKVDNALQSGNSQESVTEQDSKDSTYSLSSTLTLSKADYEKHKVYACEVTHQGLSSPVTKSFNRGEC
notes: human IgG1 constant regions; also called positive control antibody; hz3C6
For the molecule B2, in test [2], the dissociation constant (Kd) was found to be 0.712 nM, the dissociation rate constant (koff) turned out to be 0.000581 s⁻¹ and the on-rate (kon) turned out to be 816000 M⁻¹ s⁻¹. Further, the “Blocking activity (IC50), STAT3-luc reporter” value (“Blocking activity (IC50)” below) in test [3] came to 0.342 µg/mL. In test [4], this molecule came in with a Kd of 0.712 nM, a koff of 0.000581 s⁻¹ and a kon of 816000 M⁻¹ s⁻¹. The IC50 in test [5] turned out to be 1.9 µg/mL.

B3: 3C6-mFc (antibody, mouse IgG1)
heavy: EVQLVQSGAEVKKPGASVKISCKASGYTFTDYNMDWVKQAPGQRLEWIGDINPHNGGPIYNQKFTGRATLTVDKSASTAYMELSSLRSEDTAVYYCARGELGHWYFDVWGQGTTVTVSSAKTTPPSVYPLAPGSAAQTNSMVTLGCLVKGYFPEPVTVTWNSGSLSSGVHTFPAVLQSDLYTLSSSVTVPSSTWPSETVTCNVAHPASSTKVDKKIVPRDCGCKPCICTVPEVSSVFIFPPKPKDVLTITLTPKVTCVVVDISKDDPEVQFSWFVDDVEVHTAQTQPREEQFNSTFRSVSELPIMHQDWLNGKEFKCRVNSAAFPAPIEKTISKTKGRPKAPQVYTIPPPKEQMAKDKVSLTCMITDFFPEDITVEWQWNGQPAENYKNTQPIMDTDGSYFVYSKLNVQKSNWEAGNTFTCSVLHEGLHNHHTEKSLSHSPGK
light: DIVLTQSPASLALSPGERATLSCRASKSVSTSGYSYIHWYQQKPGQAPRLLIYLASNLDSGVPARFSGSGSGTDFTLTISSLEEEDFATYYCQHSRDLPPTFGQGTKLEIKRTVAAPTVSIFPPSSEQLTSGGASVVCFLNNFYPKDINVKWKIDGSERQNGVLNSWTDQDSKDSTYSMSSTLTLTKDEYERHNSYTCEATHKTSTSPIVKSFNRNEC
notes: murine IgG1 constant regions; also called positive control anti-IL-11 antibody
In test [6], B3 had a Kd of 0.712 nM, an off-rate (koff) of 0.000581 s⁻¹ and a kon of 816000 M⁻¹ s⁻¹. Besides, the IC50 in test [1] is 2.1 µg/mL.

B4: hz8C8 (antibody, human IgG1, kappa, V domains shown)
VH: EVQLVESGGGLVQPGGSLRLSCAASGFTFSSFGMHWVRQAPGKGLEWVAYITSGSNTIYYADTVKGRFTISRDNAKNSLYLQMNSLRAEDTAVYYCAREYYSYDEGFAYWGQGTLVTVSS
VL: EIVLTQSPATLSLSPGERATLSCSVSSSISSNYLHWYQQKPGQAPRLLIYRTSNLASGIPARFSGSGSGTDFTLTISSLEPEDFAVYYCQQGVDVPFTFGQGTKLEIKR
notes: humanized, human constant regions; also called hz8C8-VH + hz8C8-VL; parent antibody hz8C8
For the molecule B4, the “Blocking activity (IC50)” value in test [3] is 2.04 µg/mL. Besides, in test [4], the Kd turned out to be 1.6 nM, the koff is 0.00134 s⁻¹ and the kon was determined as 836000 M⁻¹ s⁻¹. The IC50 in test [5] is 2.56 µg/mL.

B5: hz8C8-VHm5 + hz8C8-VLm7 (antibody, human IgG1, kappa, V domains shown)
VH: EVQLVESGGGLVQPGGSLRLSCAASGFTFSSFGMSWVRQAPGKGLEWVAYITPGSNTIYYADTVKGRFTISRDNAKNSLYLQMNSLRAEDTAVYYCAREYYSYDEGFAYWGQGTLVTVSS
VL: EIVLTQSPATLSLSPGERATLSCSVSDLIPSQYLHWYQQKPGQAPRLLIYRTSNLASGIPARFSGSGSGTDFTLTISSLEPEDFAVYYCQQGVDVPFTFGQGTKLEIKR
notes: human IgG1 constant regions
Regarding B5, the “Blocking activity (IC50)” value in test [3] came to 0.01 µg/mL. In test [7], the Kd was 0.19 nM, the koff is 0.000175 s⁻¹ and the on-rate (kon) amounted to 920000 M⁻¹ s⁻¹. The concentration for half-maximal inhibition (IC50) in test [5] was found to be 0.65 µg/mL.

B6: hz8C8-VHm6 + hz8C8-VLm7 (antibody, human IgG1, kappa, V domains shown)
VH: EVQLVESGGGLVQPGGSLRLSCAASGFTFSSFGMHWVRQAPGKGLEWVAYITPGSSTIYYADTVKGRFTISRDNAKNSLYLQMNSLRAEDTAVYYCAREYYSYDEGFAYWGQGTLVTVSS
VL: EIVLTQSPATLSLSPGERATLSCSVSDLIPSQYLHWYQQKPGQAPRLLIYRTSNLASGIPARFSGSGSGTDFTLTISSLEPEDFAVYYCQQGVDVPFTFGQGTKLEIKR
notes: human IgG1 constant regions
Turning to B6, in test [3], the “Blocking activity (IC50)” value was found to be 0.066 µg/mL. In test [7], the Kd is 0.156 nM, the koff was found to be 0.000127 s⁻¹ and the kon was 812000 M⁻¹ s⁻¹. In test [5], the 50% inhibitory concentration (IC50) came out at 0.54 µg/mL.

B7: hz18A10 (antibody, human IgG1, kappa, V domains shown)
VH: EVQLVQSGAEVKKPGASVKVSCKASGYTFTTYNMDWVRQAPGQGLEWMGTIYPGNGDTSYNQKFKGRVTMTRDTSTSTVYMELSSLRSEDTAVYYCARGDLYALDYWGQGTLVTVSS
VL: DIQMTQSPSSLSASVGDRVTITCKASQSVSNDVAWYQQKPGKAPKLLIYSASNRYTGVPSRFSGSGSGTDFTFTISSLQPEDIATYYCQHDYSSPYTFGQGTKLEIKR
notes: humanized, human constant regions; also called hz18A10-VH + hz18A10-VL; parent antibody hz18A10
B7: in test [2], the dissociation constant (Kd) amounted to 3.21 nM, the dissociation rate constant (koff) was 0.00249 s⁻¹ and the kon is 773000 M⁻¹ s⁻¹. Besides, the “Blocking activity (IC50)” value in test [3] was found to be 18.5 µg/mL.

B8: mu8C8 (antibody, V domains shown)
VH: DVQLVESGGGLVQPGGSRKLSCAASGFTFSSFGMHWVRQSPERGLEWVAYITSGSNTIYYADTVKGRFTISRDNPENTLFLQMTSLRSEDTAMYYCAREYYSYDEGFAYWGQGTLVTVSA
VL: EIVLTQSPTTMAASPGEKITITCSVSSSISSNYLHWYQQKPGFSPKLLIYRTSNLASGVPARFSGSGSGTSHSLTIDTMEAEDVATYYCQQGVDVPFTFGSGTKLEIKR
notes: also called recombinant murine antibody 8C8
Consider B8, for which, in test [1], the 50% inhibitory concentration (IC50) turned out to be 1.61 µg/mL.
